Data published in patent publication US8575303.

Experiments:
[1] = target: unlabeled anti-CD4 (RPA-T4 clone, BD Biosciences) raised in mouse against the human antigen; experiment: flow cytometry on Cyto-trol cells pre-labeled with mouse anti-CD4 primary (Example 36, FIG. 20B)
Mouse IgG [2] = experiment: Luminex xMap bead sandwich assay, mouse IgG titration, detection with streptavidin-phycoerythrin at 4 ug/mL
Mouse IgG [3] = experiment: Luminex xMap bead sandwich assay, mouse IgG titration, detection with streptavidin-conjugated polymer

Substance	stain index, fold over a Pacific Blue control conjugate of the same antibody [1] [fold]	MFI/zero (fluorescence highest point in standard curve/fluorescence zero concentration of analyte) (Mouse IgG [2])	MFI/zero (fluorescence highest point in standard curve/fluorescence zero concentration of analyte) (Mouse IgG [3])
405 polymer-goat anti-mouse conjugate (amine-functionalized 405 polymer conjugated to goat anti-mouse IgG purified antibody)	> 4		
Donkey anti-mouse IgG antibody covalently conjugated to xMap beads		21.8	26.6
